Reference: publication PMC10548395

Target: IQ∼Sec7PH fusion protein of IQSEC3 (not stated (human or rat cDNA cloned)) (UniProt Q9UPP2)
Test: ITC

Chain of UniProt Q9UPP2 (Q9UPP2 whole entry, looked up, the tested form may be a part): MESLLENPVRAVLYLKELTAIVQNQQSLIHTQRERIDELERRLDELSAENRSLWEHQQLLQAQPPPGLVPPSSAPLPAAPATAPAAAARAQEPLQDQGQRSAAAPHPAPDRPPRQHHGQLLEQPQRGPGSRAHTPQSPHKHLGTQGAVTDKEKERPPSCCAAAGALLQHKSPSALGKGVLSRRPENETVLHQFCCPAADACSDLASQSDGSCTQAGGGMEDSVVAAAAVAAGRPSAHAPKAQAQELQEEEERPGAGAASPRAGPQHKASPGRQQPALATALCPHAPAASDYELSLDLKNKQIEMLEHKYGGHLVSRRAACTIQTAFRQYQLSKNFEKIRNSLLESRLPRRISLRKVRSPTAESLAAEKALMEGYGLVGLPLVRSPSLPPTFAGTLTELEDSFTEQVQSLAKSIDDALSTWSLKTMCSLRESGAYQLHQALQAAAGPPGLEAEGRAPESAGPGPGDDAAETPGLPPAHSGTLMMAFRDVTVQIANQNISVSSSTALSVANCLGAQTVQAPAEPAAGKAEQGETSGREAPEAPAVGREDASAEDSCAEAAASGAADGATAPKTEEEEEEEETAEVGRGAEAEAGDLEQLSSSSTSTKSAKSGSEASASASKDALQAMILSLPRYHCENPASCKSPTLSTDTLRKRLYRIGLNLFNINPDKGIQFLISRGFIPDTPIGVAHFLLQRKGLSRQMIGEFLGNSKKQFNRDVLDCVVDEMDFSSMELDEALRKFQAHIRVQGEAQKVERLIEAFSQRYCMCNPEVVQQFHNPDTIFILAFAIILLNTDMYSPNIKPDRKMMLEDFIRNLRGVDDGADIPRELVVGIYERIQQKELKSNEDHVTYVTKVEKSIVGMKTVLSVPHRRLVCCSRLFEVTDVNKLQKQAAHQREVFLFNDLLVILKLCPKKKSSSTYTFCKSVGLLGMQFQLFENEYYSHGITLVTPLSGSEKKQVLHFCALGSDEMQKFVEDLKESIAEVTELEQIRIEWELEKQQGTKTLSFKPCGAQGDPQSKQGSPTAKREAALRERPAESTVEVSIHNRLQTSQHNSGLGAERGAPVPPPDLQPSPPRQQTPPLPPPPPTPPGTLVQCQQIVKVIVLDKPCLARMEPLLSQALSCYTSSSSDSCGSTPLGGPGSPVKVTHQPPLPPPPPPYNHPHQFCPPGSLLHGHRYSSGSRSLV

Kd: 1 nM
Substance: calmodulin (CaM) (from UniProt P0DP25 2-149) (natural protein)
